Here are results for 1 protein from publication PMC11592144, “Biochemical Characterization of an Arabinoside Monophosphate Specific 5′-Nucleotidase-like Enzyme from Streptomyces antibioticus” (Biomolecules, 2024).

Substrate in data set [1]: Nc1ncnc2c1ncn2[C@@H]1O[C@H](COP(=O)(O)O)[C@@H](O)[C@@H]1O
Briefly: HPLC of Ara-A formation, Lineweaver-Burk. The class given is biochemical, Streptomyces antibioticus. The settings on record: 50 mM HEPES pH 7.5, 1 mM MgCl2, 0.01-1.5 mM substrate, 0.2 mg/mL PenF. The text has this: HPLC of Ara-A formation, Lineweaver-Burk on PenF

Substrate in data set [2]: Nc1ncnc2c1ncn2[C@H]1C[C@H](O)[C@@H](COP(=O)(O)O)O1
Kind of data set: HPLC of deoxyadenosine formation, Lineweaver-Burk. The class given is biochemical, Streptomyces antibioticus. The settings on record: 50 mM HEPES pH 7.5, 1 mM MgCl2, 0.2-2.5 mM substrate, 0.2 mg/mL PenF. The text has this:
HPLC of deoxyadenosine formation, Lineweaver-Burk on PenF

B1: PenF (Streptomyces antibioticus) (protein)
chain: MVTLPDRVRAHVLADFATADPAHDIHHLDRVAALAGDIAVLLGADPQTAQVAAYVHDYHRVEEARQGRRPIRPEEARSAVLDVLERSEVPEKLHGTILRAVELTGRYRFGGDELDGEDLIAAAVHDADNLDAMGAVGVGRAFAFGGLLGEPLWEPAAGLKELYTEGETSSVLAHLYEKLVHLEKDMLTEPARRLAAERAFQLHRFAAEFRSQWGEEDVVSHSGGTRVHWDPLTRFLAVTQPEPDGITVTHIGFRGQAMLAFDEQGQPVGVDLLGAPEALTHCVPHAQRSRAWVADAAGGWLLDAEADVVWISISEAPVRRRLTAVGDIEVQLREGKLATLRMHLTEEAPVSVGGEGAP
notes: codon-optimized penF in pET28a (NdeI/XhoI), C-terminal His6 tag, E. coli BL21(DE3), Ni-NTA; about 42 kDa by MALDI-TOF (45 kDa SDS-PAGE)
For the protein B1, in data set [1], the Km (in general, the substrate concentration at which the rate is half of its maximum) was 71.5 µM; the Vmax (usually the rate approached at saturating substrate) turned out to be 170 µM/min; the catalytic constant (kcat) (in general, the number of substrate molecules converted per active site and unit of time at saturation) amounted to 0.565 s⁻¹; the kcat/Km (as a rule, the turnover number divided by the Michaelis constant) is 7900 M⁻¹ s⁻¹. Also, in data set [2], the Km stood at 344 µM, the Vmax is 11.9 µM/min, the kcat amounted to 0.04 s⁻¹ and the kcat/Km worked out at 117 M⁻¹ s⁻¹.
